Laboratory results published in US20230365640A1 (ACADEMIA SINICA, published 2023).

B1: Dectin-1.Fc (CLEC7A) protein (Fc fusion)
chain: TMAIWRSNSGSNTLENGYFLSRNKENHSQPTQSSLEDSVTPTKAVKTTGVLSSPCPPNWIIYEKSCYLFSMSLNSWDGSKRQCWQLGSNLLKIDSSNELGFIVKQVSSQPDNSFWIGLSRPQTEVPWLWEDGSTFSSNLFQIRTTATQENPSPNCVWIHVSVIYDQLCSVPSYSICEKKFSM
B2: Mincle.Fc (CLEC4F) protein (Fc fusion)
chain: RCVVTFRIFQTCDEKKFQLPENFTELSCYNYGSGSVKNCCPLNWEYFQSSCYFFSTDTISWALSLKNCSAMGAHLVVINSQEEQEFLSYKKPKMREFFIGLSDQVVEGQWQWVDGTPLTKSLSFWDVGEPNNIATLEDCATMRDSSNPRQNWNDVTCFLNYFRICEMVGINPLNKGKSL
B3: Dectin-2.Fc (CLEC6A) protein (Fc fusion)
chain: TYHFTYGETGKRLSELHSYHSSLTCFSEGTKVPAWGCCPASWKSFGSSCYFISSEEKVWSKSEQNCVEMGAHLVVFNTEAEQNFIVQQLNESFSYFLGLSDPQGNNNWQWIDKTPYEKNVRFWHLGEPNHSAEQCASIVFWKPTGWGWNDVICETRRNSICEMNKIYL
B4: CLEC5A.Fc protein (Fc fusion)
chain: PQIFNKSNDGFTTTRSYGTVSQIFGSSSPSPNGFITTRSYGTVCPKDWEFYQARCFFLSTSESSWNESRDFCKGKGSTLAIVNTPEKLKFLQDITDAEKYFIGLIYHREEKRWRWINNSVFNGNVTNQNQNFNCATIGLTKTFDAASCDISYRRICEKNAK

Biological target: recombinant SARS-CoV-2 RBD (His-tagged SARS-CoV-2 RBD fusion protein) (SARS-CoV-2, UniProt P0DTC2 328-585)
Assay: ELISA

Row | Binder | binding result
1 | B1 | no binding (tested: 50 µg/ml)
2 | B2 | no binding (tested: 50 µg/ml)
3 | B3 | no binding (tested: 50 µg/ml)
4 | B4 | no binding (tested: 50 µg/ml)
